Reference: article PMC5411485

Assays:
[1] = test system: ScNsrR D8A, [4Fe-4S] (Streptomyces coelicolor); test: EMSA; conditions: EMSA: 10 mM Tris, 54 mM KCl, 0.3% glycerol, 1.32 mM glutathione, pH 7.2, on ice ~10 min; 5% PAGE in 1x TBE
[2] = test system: ScNsrR D8C, [4Fe-4S] (Streptomyces coelicolor); test: EMSA; conditions: EMSA: 10 mM Tris, 54 mM KCl, 0.3% glycerol, 1.32 mM glutathione, pH 7.2, on ice ~10 min; 5% PAGE in 1x TBE

Substance: hmpA1 promoter probe
- K half ([4Fe-4S] protein:DNA ratio) [1]: > 20
- K half ([4Fe-4S] protein:DNA ratio) [2]: 20
